Test results from patent publication US7186551B1, “3′-phosphoadenosine -5′-phosphosulfate synthetase 2 (PAPSS2) sequence variants” (Mayo Foundation for Medical Education and Research, priority 2001, dated 2007).
“And” between values parts separate entries of the source, which are not always exact repeats. Equal entries are not always repeated.

Columns and labels:
Type in all cases: biochemical, human
[1] = system: PAPSS2; experiment: Substrate kinetic studies of recombinant PAPSS2 with ATP and Na2SO4
Experimental: To estimate apparent Km values of PAPSS2 for the two reaction cosubstrates, a series of ATP (0.125–4 mM) and Na2SO4 (0.125–16 mM) concentrations were tested with the recombinant allozymes. When ATP was the varied substrate, the concentration of Na2SO4 was 4 mM, and when Na2SO4 was the varied substrate, the concentration of ATP was 1 mM. Blanks for each substrate concentration were included by assaying COS-1 cell cytosol after transfection with empty vector.
Data Analysis: Apparent Km values were calculated by using the method of Wilkinson with a computer program written by Cleland. Wilkinson, Biochem. J., 80:324–332 (1961); and Cleland, Nature, 198:[…] (1963). Statistical comparisons of data were performed by ANOVA with the StatView program, version 4.5 (Abacus Concepts, Inc., Berkeley, Calif.). Apparent Km, S50 and Vmax values for the wild-type and variant PAPSS2 allozymes were compared by the use of unpaired Student's t-test.
Alterations in amino acid sequence can alter enzyme substrate affinity and/or catalytic efficiency. Decreased activity of the Val291Met allozyme—without a significant alteration in level of enzyme protein—could have resulted from a change in substrate kinetics. Therefore, a series of ATP (0.125–4 mM) and Na2SO4 (0.125–16 mM) concentrations were used to estimate apparent Km values for recombinant wild type PAPSS2 and for the Val291Met variant allozyme. […] ATP concentrations at which 50% maximal velocity was achieved (S50 values) were 0.70 and 0.95 mM for the wild type and variant allozymes, respectively (Table 4). In both cases, the Hill coefficient was greater than 2, […]. In contrast, substrate kinetics of both allozymes for Na2SO4 conformed to Michaelis-Menten predictions (FIG. 5B). […] In summary, decreased activity for the Val1291Met variant appeared to result from an alteration in substrate kinetics, while decreased activity for the Glu10Lys allozyme, in contrast, resulted primarily from a decrease in the quantity of enzyme protein. Because the Val291Met variant was encoded by a construct that contained the most common PAPSS2 nonsynonymous cSNP, these observations could have functional implications for the sulfate conjugation of both endogenous and/or exogenous compounds.

[2] = system: PAPSS2; experiment: PAPSS2 enzyme activity, coupled radiochemical assay (PAPS generation then SULT1E1-catalyzed sulfation of [3H]estradiol) with COS-1 expressed recombinant allozymes; conditions: for % WT activity / decrease in enzyme activity compared with the wild type enzyme: His-tagged recombinant allozyme, loxP-modified p91023(b) vector, COS-1 cells, corrected for transfection efficiency; for activity relative to the reference PAPSS2 (in words): general statement in the description
Excerpt: Variant alleles of the four non-synonymous PAPSS2 cSNPs observed during the resequencing experiments were created using the QuickChange Site-Directed Mutagenesis Kit (Stratagene, La Jolla, Calif.), with wild type PAPSS2 cDNA in pUni as template. The sequence of the pUni insert was confirmed by completely sequencing both strands before recombination with the loxP-modified p91023(b) acceptor vector. pUni donor vectors that contained wild type and variant PAPSS2 cDNAs, as well as empty pUni, then were combined with the loxP-modified p91023(b) acceptor vector to generate the final expression constructs. In all cases, the fusion junctions of resultant expression constructs were sequenced to confirm that the construct was a dimer consisting of only a single donor and a single acceptor vector. These expression constructs were used to transfect COS-1 cells using TransFast™ reagent (Promega) with a 1:1 charge ratio. pSV-β-galactosidase (Promega) was co-transfected with each construct as an internal control to correct for transfection efficiency. Transfected COS-1 cells were harvested after 48 hours and were homogenized with a Polytron homogenizer (Brinkmann Instruments, Westbury, N.Y.) in 25 mM potassium phosphate buffer, pH 7.8, containing 1 mM dithiothreitol (DTT) and 1 mM EDTA. The homogenates were centrifuged at 15,000 g for 15 minutes, and the resultant supernatant preparations were used to perform enzyme assays, substrate kinetic studies and Western blot analyses. In some cases, aliquots of these cytosol preparations were stored at −80° C. prior to assay.
PAPSS2 Enzyme Activity: PAPSS2 activity was measured with a coupled radiochemical assay. See Xu et al., 2001, supra. Briefly, PAPS is generated from ATP and Na2SO4 in a PAPSS2-catalyzed reaction. The generated PAPS is then used as a substrate for the SULT1E1-catalyzed sulfate conjugation of [2,4,6,7-^3H]estradiol, a radioactively labeled sulfate acceptor substrate. The cell homogenate preparations of recombinant PAPSS2 allozymes described above were used for the activity studies without any further purification. The protein concentration of each recombinant protein preparation was determined by the dye-binding method of Bradford with bovine serum albumin (BSA) as a standard.
PAPS synthesis was catalyzed by recombinant wild-type PAPSS2 or PAPSS2 allozymes (present in the cell homogenate preparations described above) in the presence of 1 mM ATP, 16 mM Na2SO4, 1 mM MgCl2, and 2 mM DTT in 60 mM glycine-NaOH buffer, pH 8.6. Blank samples included the same quantity of COS-1 cytosol protein from cells that had been transfected with empty expression vector to make it possible to correct for endogenous activity. Reaction mixtures were incubated at 37° C. for 20 minutes, and then terminated by heating at 100° C. for 1 minute. An aliquot from this PAPS-generating reaction was then added to a second, coupled reaction containing recombinant human SULT1E1 isolated from COS-1 cells transfected with a SULT1E1 expression construct (see Aksoy et al., Biochem. Biophys. Res. Commun., 200:1621–1629 (1994)). The coupled reaction also included 27 nM [2,4,6,7-^3H]estradiol, 8 mM DTT and 1.25 mM MgCl2 in 10 mM potassium phosphate buffer, pH 6.5. The second, SULT1E1-catalyzed reactions were incubated at 37° C. for 20 minutes, and then terminated by the addition of KOH, followed by organic solvent extraction performed with chloroform. Radioactivity of the sulfate conjugated [2,4,6,7-^3H]estradiol in the aqueous phase after organic solvent extraction was then measured in a liquid scintillation counter. PAPSS activities of recombinant PAPSS2 allozymes were compared after correction for transfection efficiency by measuring the activity of cotransfected P-galactosidase. β-Galactosidase activity in the COS-1 cell preparations was measured with the β-Galactosidase Assay System (Promega) as described by the manufacturer. […]

[3] = system: PAPSS2; experiment: as above; conditions: non-His-tagged expression vector p91023(b), COS-1 cells, corrected for transfection efficiency

Row | % WT activity [2] | activity reduced compared with wild type [3] [%] | Molecule | S50 for ATP (ATP concentration at which 50% maximal velocity was achieved) ([1]; ATP varied 0.125-4 mM, Na2SO4 4 mM) | Km ([1]; apparent Km, Na2SO4 varied 0.125-16 mM, ATP 1 mM) [µM] | Vmax/S50, ATP ([1]; ratio, wild type = 100, ATP as varied substrate) | Vmax, ATP ([1]; relative Vmax, wild type = 100, ATP as varied substrate) | Vmax, Na2SO4 ([1]; relative Vmax, wild type = 100, Na2SO4 as varied substrate) | decrease in enzyme activity compared with the wild type enzyme [2] [%] | activity relative to the reference PAPSS2 (in words) [2]
1 | 37.1 ± 6.9% | 57.4 | Val291Met: PAPSS2 polypeptide allozyme having a methionine at amino acid 291 in place of valine (adenine at nucleotide 871) (protein) MSGIKKQKTENQQKSTNVVYQAHHVSRNKRGQVVGTRGGFRGCTVWLTGLSGAGKTTISFALEEYLVSHAIPCYSLDGDNVRHGLNRNLGFSPGDREENIRRIAEVAKLFADAGLVCITSFISPFAKDRENARKIHESAGLPFFEIFVDAPLNICESRDVKGLYKRARAGEIKGFTGIDSDYEKPETPERVLKTNLSTVSDCVHQVVELLQEQNIVPYTIIKDIHELFVPENKLDHVRAEAETLPSLSITKLDLQWVQVLSEGWATPLKGFMREKEYLQVMHFDTLLDDGMINMSIPIVLPVSAEDKTRLEGCSKFVLAHGGRRVAILRDAEFYEHRKEERCSRVWGTTCTKHPHIKMVMESGDWLVGGDLQVLEKIRWNDGLDQYRLTPLELKQKCKEMNADAVFAFQLRNPVHNGHALLMQDTCRRLLERGYKHPVLLLHPLGGWTKDDDVPLDWRMKQHAAVLEEGVLDPKSTIVAIFPSPMLYAGPTEVQWHCRSRMIAGANFYIVGRDPAGMPHPETKKDLYEPTHGGKVLSMAPGLTSVEIIPFRVAAYNKAKKAMDFYDPARHNEFDFISGTRMRKLAREGENPPDGFMAPKAWKVLTDYYRSLEKN | 0.95 mM and 0.95 ± 0.02 mM | 3000 | 27.8 ± 3.3 | 37 ± 3.9 | 45 ± 2.4 | 62.9 | reduced activity
2 | 104.8% and 104.8 ± 10.1% |  | Arg432Lys: PAPSS2 polypeptide allozyme having a lysine at amino acid 432 in place of arginine (adenine at nucleotide 1295) (protein) MSGIKKQKTENQQKSTNVVYQAHHVSRNKRGQVVGTRGGFRGCTVWLTGLSGAGKTTISFALEEYLVSHAIPCYSLDGDNVRHGLNRNLGFSPGDREENIRRIAEVAKLFADAGLVCITSFISPFAKDRENARKIHESAGLPFFEIFVDAPLNICESRDVKGLYKRARAGEIKGFTGIDSDYEKPETPERVLKTNLSTVSDCVHQVVELLQEQNIVPYTIIKDIHELFVPENKLDHVRAEAETLPSLSITKLDLQWVQVLSEGWATPLKGFMREKEYLQVMHFDTLLDDGVINMSIPIVLPVSAEDKTRLEGCSKFVLAHGGRRVAILRDAEFYEHRKEERCSRVWGTTCTKHPHIKMVMESGDWLVGGDLQVLEKIRWNDGLDQYRLTPLELKQKCKEMNADAVFAFQLRNPVHNGHALLMQDTCRRLLEKGYKHPVLLLHPLGGWTKDDDVPLDWRMKQHAAVLEEGVLDPKSTIVAIFPSPMLYAGPTEVQWHCRSRMIAGANFYIVGRDPAGMPHPETKKDLYEPTHGGKVLSMAPGLTSVEIIPFRVAAYNKAKKAMDFYDPARHNEFDFISGTRMRKLAREGENPPDGFMAPKAWKVLTDYYRSLEKN |  |  |  |  |  |  | activity that is comparable to the reference PAPSS2
3 | 107.7% and 107.7 ± 2.9% |  | Met281Leu: PAPSS2 polypeptide allozyme having a leucine at amino acid residue 281 in place of methionine (thymine at nucleotide 841) (protein) MSGIKKQKTENQQKSTNVVYQAHHVSRNKRGQVVGTRGGFRGCTVWLTGLSGAGKTTISFALEEYLVSHAIPCYSLDGDNVRHGLNRNLGFSPGDREENIRRIAEVAKLFADAGLVCITSFISPFAKDRENARKIHESAGLPFFEIFVDAPLNICESRDVKGLYKRARAGEIKGFTGIDSDYEKPETPERVLKTNLSTVSDCVHQVVELLQEQNIVPYTIIKDIHELFVPENKLDHVRAEAETLPSLSITKLDLQWVQVLSEGWATPLKGFMREKEYLQVLHFDTLLDDGVINMSIPIVLPVSAEDKTRLEGCSKFVLAHGGRRVAILRDAEFYEHRKEERCSRVWGTTCTKHPHIKMVMESGDWLVGGDLQVLEKIRWNDGLDQYRLTPLELKQKCKEMNADAVFAFQLRNPVHNGHALLMQDTCRRLLERGYKHPVLLLHPLGGWTKDDDVPLDWRMKQHAAVLEEGVLDPKSTIVAIFPSPMLYAGPTEVQWHCRSRMIAGANFYIVGRDPAGMPHPETKKDLYEPTHGGKVLSMAPGLTSVEIIPFRVAAYNKAKKAMDFYDPARHNEFDFISGTRMRKLAREGENPPDGFMAPKAWKVLTDYYRSLEKN |  |  |  |  |  |  | activity that is comparable to the reference PAPSS2
4 | 72.6 ± 7.2% | 14.1 | Glu10Lys: PAPSS2 polypeptide allozyme having a lysine at amino acid residue 10 in place of glutamic acid (adenine at nucleotide 28) (protein) MSGIKKQKTKNQQKSTNVVYQAHHVSRNKRGQVVGTRGGFRGCTVWLTGLSGAGKTTISFALEEYLVSHAIPCYSLDGDNVRHGLNRNLGFSPGDREENIRRIAEVAKLFADAGLVCITSFISPFAKDRENARKIHESAGLPFFEIFVDAPLNICESRDVKGLYKRARAGEIKGFTGIDSDYEKPETPERVLKTNLSTVSDCVHQVVELLQEQNIVPYTIIKDIHELFVPENKLDHVRAEAETLPSLSITKLDLQWVQVLSEGWATPLKGFMREKEYLQVMHFDTLLDDGVINMSIPIVLPVSAEDKTRLEGCSKFVLAHGGRRVAILRDAEFYEHRKEERCSRVWGTTCTKHPHIKMVMESGDWLVGGDLQVLEKIRWNDGLDQYRLTPLELKQKCKEMNADAVFAFQLRNPVHNGHALLMQDTCRRLLERGYKHPVLLLHPLGGWTKDDDVPLDWRMKQHAAVLEEGVLDPKSTIVAIFPSPMLYAGPTEVQWHCRSRMIAGANFYIVGRDPAGMPHPETKKDLYEPTHGGKVLSMAPGLTSVEIIPFRVAAYNKAKKAMDFYDPARHNEFDFISGTRMRKLAREGENPPDGFMAPKAWKVLTDYYRSLEKN |  |  |  |  |  | 27.4 | reduced activity
